# From the nanobody polyreactivity screen of Harvey et al. (2022)
# Experiment: yeast display, Sf9 membrane polyspecificity reagent, FACS + sequencing; frameworks hold sequencing errors
# Outline: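 Galactose-induced (36–48 hours) yeast carrying a synthetic nanobody display library were exposed to 10% biotinylated, detergent-solubilized Sf9 membrane reagent at 4 °C for 1 hour. FACS followed streptavidin microbead enrichment, using low and high (top ~1%) gates for expression (anti-HA) and reagent binding (streptavidin). Colony PCR, MiSeq 2 × 250 sequencing and CDR-length filtering followed. Labels for polyreactivity reflect the gate of origin.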
row,Sequence,polyreactivity (PSR sort gate)
1,QVQLVESGGGLVQAGGSLRLSCAASGRIFSFNAMGWYRQAPGKERELVASGGSTYADSVKGRFTISRDNAKNTVYLQMNSLKPEDTAVYYCAADPFYYFPSPFDYWGQGTQVTVSS,low polyreactivity
2,QVQLVESGGGLVQAGGSLRLSCAASGRIFSFNTMGWYRQAPGKERELVAAITSSSARTYYADSVKGRFTISRDNAKNTVYLQMNSLKPEDTAVYYCAADSTLSRYDYWGQGTQVTVSS,high polyreactivity
3,QVQLVESGGGLVQAGGSLRLSCAASGRIFSFYAMGWYRQSPGKERELVATISDGGATTYYADSVKGRFTISRDNAKNTVYLQMNSLKPEDTAVYYCAADKRGRPGLPDYDSWGQGTQVTVSS,low polyreactivity
4,QVQLVESGGGLVQAGGSLRLSCAASGRIFSFYVMGWYRQEPGKERELVAAIDNGGGSTYYADSVKGRFTISRDNAKNTVYLQMNSLKPEDTAVYYCAAEVYDSDSEYYYWGQGTQVTVSS,low polyreactivity
5,QVQLVESGGGLVQAGGSLRLSCAASGRIFSGNTMGWYRPAPGKERELVAAISKSGGRTYYADSVKGRFPISRVNAKNTVYLQMNSLKPEDTAVYYCNADYRSHYLYDYWGQGTQVTVSS,low polyreactivity
6,QVQLVESGGGLVQAGGSLRLSCAASGRIFSGNTMGWYRQAPGKERELVAAISKSGGRTYYADSVKGRFTISRDNAKNTVYLQMNSLKPEDTAVYYCNADYRSHYLYDYWGQGTQVTVSS,low polyreactivity
7,QVQLVESGGGLVQAGGSLRLSCAASGRIFSGNVMGWYRQAPGKERELVAAISRSGGSTYYADSVKGRFTISRDNAKNTVYLQMNSLKPEDTAVYYCADVPTSNSFRSSFYYWGHGTQVTVSS,high polyreactivity
8,QVQLVESGGGLVQAGGSLRLSCAASGRIFSGYAIGWYRQAPGKERELVAAITSGGSTNYADSVKGRFTISRDNAKNTVYLQMNSLKPEDTAVYYCAADYREVSTTAYYYWGQGTQVTVSS,low polyreactivity
9,QVQLVESGGGLVQAGGSLRLSCAASGRIFSGYAMGWYRQAPGKERELVAAISQRGGSTTYADSVKGRFTISRDNAKKTVDLQMNSLKPEDTAVYDCAKRYTYPSGYDYWGQGTQVTVSS,low polyreactivity
10,QVQLVESGGGLVQAGGSLRLSCAASGRIFSGYVMGWYRQAPGKERELVAAISRSGGSTYYADSVKGRFTISRDNAKNTVYLQMNSLKPEDTAVYYCNAYYRYFRSIYDSWGQGTQVTVSS,high polyreactivity
11,QVQLVESGGGLVQAGGSLRLSCAASGRIFSGYVMGWYRQAPGKERELVAVISRSGGSTYYADSVKGRFTISRDNAKNTVYLLMNSLKPEDTAVYYCAAKHIDGSRGYVYWGQGTQVTVSS,low polyreactivity
12,QVQLVESGGGLVQAGGSLRLSCAASGRIFSHKAMGWYRQAPGKERELVAGISSGGGTTYADSVKGRFTISRDNAKNTVYLQMNSLKPEDTAVYYCNKQDQPVGRSGYPYGYDYWGQGTQVTVSS,low polyreactivity
13,QVQLVESGGGLVQAGGSLRLSCAASGRIFSHYAMGWYRQAPGKERELVAAITSDGSTNYADSVKGRFTISRDNAKNTVYLQMNSLKPEHTAVYYCAKYVHIPYYYYLFGSYDYWGQGTQLTVSS,low polyreactivity
14,QVQLVESGGGLVQAGGSLRLSCAASGRIFSKNAMGWYRPAPGKERELVAAISSGGSTYDADSVKGRFTISRDNAKNTVYLQMNSLKPEDTAVYYCAARKRGYYWGQGTQVTVSS,high polyreactivity
15,QVQLVESGGGLVQAGGSLRLSCAASGRIFSKYAMGWYRQAPGKARELVAAISTSTGSTYYADSVKGRFTISRDNAKNTVYLQMNSLKPEDTAVYYCAAVGSRWFSQTWRDYWGQGTQVTVSS,high polyreactivity
16,QVQLVESGGGLVQAGGSLRLSCAASGRIFSKYAMGWYRQAPGKDRELVAAISWSGGRTYYADSVKGRFTISRDNAKNTVYLQMNSLKPEDAALYYCAASFYTGYDYWGQGTQVTVSS,high polyreactivity

row,Sequence,polyreactivity (PSR sort gate)
1,QVQLVESGGGLVQAGGSLRLSCAASGRIFSLNAMGWYRQAPGKERELVAGIRKRGGSTYYADSVKGRFTISRDNAKNTVYLQMNSLKPEDTAVYYCAAQPALTYRFYYWGQGTQVTVSS,high polyreactivity
2,QVQLVESGGGLVQAGGSLRLSCAASGRIFSLNAMGWYRQAPGKERELVAGIRKRGGSTYYADSVKGRFTISRDNAKNTVYLQMNSLKPEHTAVYYCAAQPALTYRFYYWGQGTQVTVSS,high polyreactivity
3,QVQLVESGGGLVQAGGSLRLSCAASGRIFSNNAMGWYRQAPGNERELVAAISSSGGSTYYADSVKGRFTISRDNAKNTVYLQMNSLKPEDTAVSYCNVGRRKIDDYWGQGTQVTVSS,high polyreactivity
4,QVQLVESGGGLVQAGGSLRLSCAASGRIFSNYAMGWYRQAPGKERELVAAISRGGGRTFYADSVKGRFTISRDNAKNTVYLQMNSLKPEDTAVYYCATRSYYVKGDYWGQGTQVTVSS,high polyreactivity
5,QVQLVESGGGLVQAGGSLRLSCAASGRIFSNYAMGWYRQAPGKERELVAAISSSGGRTYYADSVKGRFTISRDNAKNTVYLQMNSLKPEDTAVYYCARRHTGTKFAFYYWGQGTQVTVSS,high polyreactivity
6,QVQLVESGGGLVQAGGSLRLSCAASGRIFSPNAMGWYRQAHVKERELVADITFGDGSTYYADSVKGRFTISRDNAKNTVYLQMNSLIPEDTAVYYCAAELYYLYALYIYYPFYYWGQGTQVTVSS,high polyreactivity
7,QVQLVESGGGLVQAGGSLRLSCAASGRIFSQNAMGWYRQAPGKERELVAAISGGSTNYADSVKGRFTISRDNAKNTVFLQMNSLKPEDTAVYYCAADAPFKMDYWGQGTQVTVSS,low polyreactivity
8,QVQLVESGGGLVQAGGSLRLSCAASGRIFSQNAMGWYRQAPGKEREVVAVISRGGSTNYADSVKGRFTISRDNAKNTVYLQMNSLKPEDTAVYYCAADYAYIRSVWKWFIGDYWGQGTQVTVSS,low polyreactivity
9,QVQLVESGGGLVQAGGSLRLSCAASGRIFSQYAMGWNRQAPGKERELVAAITWRGASTYYADSVKGRFTISRDNAKNTVYLQMNSLKPEDTAVYYCAAGYPQGRYYRVRWVGYWGQGTQVTVSS,high polyreactivity
10,QVQLVESGGGLVQAGGSLRLSCAASGRIFSQYAMGWYRQAPGKERELVAAISRRTGSTYYADSVKGRFTISRDNAKNTVYLQMNSLKPEDTAVYYCNKARLGWSYRQDDYWGQGTQVTVSS,high polyreactivity
11,QVQLVESGGGLVQAGGSLRLSCAASGRIFSRNAMGWYRQAPGKERELVAAISSSAGSTYYADSVKGRFTISRDNAKHTVYLQMNSLKPEDTAVYYCGAESVGDMDYWGQGTQVSVSS,low polyreactivity
12,QVQLVESGGGLVQAGGSLRLSCAASGRIFSRNAMGWYRQAPGKERELVAAITRRGGSTYYADSVKGRFTISRDNAKNTVYLQMNSLKPEDTAVYYCATVTYSGSVDYDYWGQGTQVTVSS,high polyreactivity
13,QVQLVESGGGLVQAGGSLRLSCAASGRIFSRNDMGWYRQSPGKERELVAAITRIGGSTYYADSVKGRITISRDNAKNTVYLQMNSLKPEDNAVYYCAARGSGKYGWGQGSQVTVSS,high polyreactivity
14,QVQLVESGGGLVQAGGSLRLSCAASGRIFSRNTMGWYRQAPGKERELVATITSAGSTTYADSVKGRFTISRDNAKNTVYLQMNRLKPEDTAVYYCAARSWKRRVGRDYWGQGTQVTVSS,high polyreactivity
15,QVQLVESGGGLVQAGGSLRLSCAASGRIFSRYAMGWYRKAPGKERELVAAITQSGTSTYYADSVKGRFTFSRDNAKNTVYLQMNCLKPEDTAVYYCNAYRQYRYDYWGQGTQVTVSS,low polyreactivity
16,QVQLVESGGGLVQAGGSLRLSCAASGRIFSRYAMGWYRQAPGKERELDAAINKSGGSTYYADSVKGRFTISRDNAKHTVYLQMNSLKPEDTAVYYCAADGRLRGYGYWGQGTQVTVSS,high polyreactivity
